According to patent US20190161551A1 (Regeneron, published 2019):

Columns and labels:
[1] = biological target: T1, human TrkB extracellular domain expressed with a C-terminal mouse IgG2a Fc tag (human); test: SPR, mAb captured (anti-mFc), 25C
T1 construct: also called hTrkB-mFc; hTrkB.mFc
Procedure: (§1) Equilibrium dissociation constants (KD values) for TrkB binding to purified anti-TrkB monoclonal antibodies were determined using a real-time surface plasmon resonance biosensor using a Biacore 4000 instrument. All binding studies were performed in 10 mM Hepes pH 7.4, 150 mM NaCl, 3 mM EDTA, and 0.05% v/v Surfactant Tween-20 (HBS-ET running buffer) at 25° C. and 37° C. […] Binding studies were performed on following TrkB reagents; human TrkB extracellular domain expressed with a C-terminal myc-myc-hexahistidine tag (hTRKB.mmH; SEQ ID NO: 76; Accession number NP_001018074.1), mouse TrkB extracellular domain expressed with a C-terminal myc-myc-hexahistidine tag (mTRKB.mmH; SEQ ID NO: 79; Accession number NP_001020245), rat TrkB extracellular domain expressed with a C-terminal myc-myc-hexahistidine tag (rTRKB.mmH; SEQ ID NO: 84; Accession number NP_036863.1), and human TrkB extracellular domain expressed with a C-terminal mouse IgG2a Fc tag (hTrkB-mFc; SEQ ID NO: 77; Accession number NP_001018074.1). […] Kinetic association (kₐ) and dissociation (kd) rate constants were determined by fitting the real-time binding sensorgrams to a 1:1 binding model with mass transport limitation using Scrubber 2.0c curve-fitting software. Binding dissociation equilibrium constants (KD) and dissociative half-lives (t½) were calculated from the kinetic rate constants as: […]

[2] = biological target: T2, mouse TrkB extracellular domain expressed with a C-terminal myc-myc-hexahistidine tag (mouse, UniProt P15209 32-429); test: SPR, mAb captured (anti-mFc), 25C
T2 construct: also called mTrkB.mmH; mTRKB.mmH
T2 sequence (P15209 other isoform, or with tags, fused parts or gaps): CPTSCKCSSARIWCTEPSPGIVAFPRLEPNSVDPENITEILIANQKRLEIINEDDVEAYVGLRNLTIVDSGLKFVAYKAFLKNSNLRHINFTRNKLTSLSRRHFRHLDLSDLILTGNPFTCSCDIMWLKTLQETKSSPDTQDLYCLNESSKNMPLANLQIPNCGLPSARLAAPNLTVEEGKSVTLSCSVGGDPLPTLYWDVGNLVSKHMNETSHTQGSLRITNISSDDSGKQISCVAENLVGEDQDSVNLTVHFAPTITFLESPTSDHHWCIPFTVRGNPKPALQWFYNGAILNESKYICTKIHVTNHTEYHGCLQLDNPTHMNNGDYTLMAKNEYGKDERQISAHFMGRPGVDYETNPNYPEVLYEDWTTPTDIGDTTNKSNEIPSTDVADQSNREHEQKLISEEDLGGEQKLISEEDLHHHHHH
Procedure: as §1

[3] = biological target: T3, human TrkB extracellular domain expressed with a C-terminal myc-myc-hexahistidine tag (human, UniProt Q16620 32-430); test: SPR, mAb captured (anti-mFc), 25C
T3 construct: also called hTrkB.mmH; hTRKB.mmH
T3 sequence (Q16620 other isoform, or with tags, fused parts or gaps): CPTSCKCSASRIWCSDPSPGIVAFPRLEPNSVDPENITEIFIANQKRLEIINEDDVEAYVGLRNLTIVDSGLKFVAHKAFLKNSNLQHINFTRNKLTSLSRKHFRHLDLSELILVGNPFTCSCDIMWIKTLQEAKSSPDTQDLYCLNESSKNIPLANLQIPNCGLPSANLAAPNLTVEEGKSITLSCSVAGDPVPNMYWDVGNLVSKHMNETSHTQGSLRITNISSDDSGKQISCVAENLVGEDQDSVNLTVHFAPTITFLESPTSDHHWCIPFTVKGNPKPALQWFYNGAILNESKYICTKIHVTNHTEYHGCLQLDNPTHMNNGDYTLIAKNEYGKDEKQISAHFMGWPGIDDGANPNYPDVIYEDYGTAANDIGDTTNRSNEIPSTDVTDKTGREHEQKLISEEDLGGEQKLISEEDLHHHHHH
Procedure: as §1

[4] = biological target: T4, rat TrkB extracellular domain expressed with a C-terminal myc-myc-hexahistidine tag (rat, UniProt Q63604 32-429); test: SPR, mAb captured (anti-mFc), 25C
T4 construct: also called rTrkB.mmH; rTRKB.mmH
T4 sequence (Q63604 other isoform, or with tags, fused parts or gaps): as the sequence (P15209 other isoform, or with tags, fused parts or gaps) above, with T3M, S9T, A10T, V32I, R63K, S84G, M153T, L185I, S394T counted along it
Procedure: as §1

[5] = biological target: T4, rat TrkB extracellular domain expressed …; test: SPR, mAb captured (anti-mFc), 25C; 25 C; rTrkB.mmH
Procedure: as §1, with “All” for “Equilibrium dissociation constants (KD values) for TrkB binding to purified anti-TrkB monoclonal antibodies were determined using a real-time surface plasmon resonance biosensor using a Biacore 4000 instrument. All”

[6] = biological target: T1, human TrkB extracellular domain …; test: SPR, mAb captured (anti-mFc), 37C
Procedure: as §1

[7] = biological target: T2, mouse TrkB extracellular domain …; test: SPR, mAb captured (anti-mFc), 37C
Procedure: as §1

[8] = biological target: T3, human TrkB extracellular domain …; test: SPR, mAb captured (anti-mFc), 37C
Procedure: as §1

[9] = biological target: T4, rat TrkB extracellular domain expressed …; test: SPR, mAb captured (anti-mFc), 37C
Procedure: as §1

T1 sequence (chain, as listed by the source limits assumed): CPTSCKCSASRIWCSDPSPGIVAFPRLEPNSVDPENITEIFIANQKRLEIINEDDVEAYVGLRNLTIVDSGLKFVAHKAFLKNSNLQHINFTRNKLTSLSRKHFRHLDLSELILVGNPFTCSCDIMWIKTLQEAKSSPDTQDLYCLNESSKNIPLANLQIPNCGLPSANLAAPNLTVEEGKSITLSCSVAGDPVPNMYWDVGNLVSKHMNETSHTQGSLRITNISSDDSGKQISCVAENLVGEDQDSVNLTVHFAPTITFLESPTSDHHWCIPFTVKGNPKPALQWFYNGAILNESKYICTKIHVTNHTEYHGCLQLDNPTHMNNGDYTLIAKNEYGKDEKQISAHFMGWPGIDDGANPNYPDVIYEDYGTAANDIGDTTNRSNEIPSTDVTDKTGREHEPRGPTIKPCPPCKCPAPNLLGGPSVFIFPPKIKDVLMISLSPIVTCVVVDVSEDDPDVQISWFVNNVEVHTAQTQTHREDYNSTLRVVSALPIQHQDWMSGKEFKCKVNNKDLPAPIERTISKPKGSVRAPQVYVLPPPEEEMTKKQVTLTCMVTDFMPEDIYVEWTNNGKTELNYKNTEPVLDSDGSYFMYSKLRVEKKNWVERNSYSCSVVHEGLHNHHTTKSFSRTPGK

B1: H1M8037C (antibody, mouse IgG1, kappa, V domains shown)
VH: QVQLVQSGAEVKKPGASVKVSCKASGYTFTNYDIIWVRQAPGQGLEWMGYINPYNDGTKYNEKFKGRVTMTRDTSTSTVYMELSSLRSEDTAVYYCARLLKYRRFRYYAIDYWGQGTTVTVSS
VL: DIQMTQSPSSLSASVGDRVTITCRTSENVYSNLAWYQQKPGKAPKLLIYAASNLQSGVPSRFSGSGSGTDYTFTISSLQPEDIATYYCQHFWGSPFTFGQGTKLEIKR
notes: captured by anti-mFc in SPR; also called Comparator; comparator anti-TrkB monoclonal antibody
Kd [1]: 1.09 nM | koff [1]: 9.55e-05 s⁻¹ | kon [1]: 88000 M⁻¹ s⁻¹ | t½ [1]: 121 min | Kd [2]: 40.8 nM | koff [2]: 0.00168 s⁻¹ | kon [2]: 41200 M⁻¹ s⁻¹ | t½ [2]: 7 min | Kd [3]: 41.3 nM | koff [3]: 0.00192 s⁻¹ | kon [3]: 46500 M⁻¹ s⁻¹ | t½ [3]: 6 min | Kd [4]: 31 nM | koff [4]: 0.0016 s⁻¹ | kon [4]: 51600 M⁻¹ s⁻¹ | t½ [4]: 7 min | Kd [5]: 31.8 nM | Kd [6]: 1.24 nM | koff [6]: 0.000292 s⁻¹ | kon [6]: 235000 M⁻¹ s⁻¹ | t½ [6]: 40 min | Kd [7]: 94.1 nM | koff [7]: 0.00696 s⁻¹ | kon [7]: 74000 M⁻¹ s⁻¹ | t½ [7]: 1.7 min | Kd [8]: 135 nM | koff [8]: 0.00831 s⁻¹ | kon [8]: 61300 M⁻¹ s⁻¹ | t½ [8]: 1.4 min | Kd [9]: 87.5 nM | koff [9]: 0.00694 s⁻¹ | kon [9]: 79300 M⁻¹ s⁻¹ | t½ [9]: 1.7 min
